In data set [1] the target is K11V-TR, cylindrin tandem repeat V2L variant. Nature of the data set: native MS.
For data set [2] the target is unchanged. The data set can be described thus: SEC. (In gel filtration, larger molecules generally elute earlier.)
The target is the same in data set [3]. The data set can be described thus: crystal structure.
Data set [4] deals with the molecule itself. Nature of the data set: crystal structure.

In general, stoichiometry N refers to the number of molecules, sites or subunits per partner or assembly. Turning to “K11V-TR, cylindrin tandem repeat V2L variant (peptide)”, the stoichiometry N in data set [1], in data set [2] and in data set [3] was 3 in each case.

Turning to GDVIEV [G6V, six-residue segment GDVIEV of alphaB crystallin], the binding result in data set [4] is “binds”.

Source of the values: paper PMC3959867 (Science (New York, N.Y.), 2012).
